Data published in article PMC8826744.

Target: recombinant furin, biotinylated (UniProt P09958)
Assay: BLI

Sequence of recombinant furin, biotinylated (P09958 27-794): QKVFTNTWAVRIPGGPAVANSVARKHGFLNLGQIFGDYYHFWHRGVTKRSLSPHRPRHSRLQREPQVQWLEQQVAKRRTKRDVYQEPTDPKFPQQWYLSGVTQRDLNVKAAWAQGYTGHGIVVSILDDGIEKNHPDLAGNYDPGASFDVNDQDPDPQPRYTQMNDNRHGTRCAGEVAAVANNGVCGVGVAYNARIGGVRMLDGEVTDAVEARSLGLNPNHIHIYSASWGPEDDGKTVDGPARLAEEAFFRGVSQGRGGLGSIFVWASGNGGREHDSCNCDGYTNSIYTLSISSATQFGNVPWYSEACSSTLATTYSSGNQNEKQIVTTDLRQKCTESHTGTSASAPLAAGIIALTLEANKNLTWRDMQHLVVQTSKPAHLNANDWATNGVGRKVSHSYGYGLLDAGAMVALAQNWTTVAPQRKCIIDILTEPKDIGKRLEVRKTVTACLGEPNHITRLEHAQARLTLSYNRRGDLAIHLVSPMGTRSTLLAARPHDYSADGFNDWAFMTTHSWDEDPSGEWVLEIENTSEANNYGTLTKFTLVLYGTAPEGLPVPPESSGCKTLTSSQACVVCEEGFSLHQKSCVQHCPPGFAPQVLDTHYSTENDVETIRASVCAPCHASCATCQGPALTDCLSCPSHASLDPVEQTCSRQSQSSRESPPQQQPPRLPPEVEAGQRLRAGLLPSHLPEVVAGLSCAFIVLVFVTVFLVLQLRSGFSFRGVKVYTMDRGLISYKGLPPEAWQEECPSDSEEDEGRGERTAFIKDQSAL

farletuzumab-FuG1 (antibody)
fold reduction of koff against farletuzumab-cFuG1: 10 fold
